US11485769B2, “Peptides and combination of peptides for use in immunotherapy and methods for generating scaffolds for the use against pancreatic cancer and other cancers” (Immatics Biotechnologies GmbH, priority 2015, dated 2022)
Each block holds one substance with its values, some of them ahead of it.

Biological target: HLA-A*02:01 (Homo sapiens, UniProt P04439, D140Y/D185E/D98H/E176V/E277Q/G131W/G231S/I119V/I121R/I166T/I218V/L300P/L318F/N151K/N90K/P208A/P217A/Q86G/Q94H/R138H/R169H/T345S)
Experiment: MHC binding assay (UV-ligand exchange, beta2m ELISA, peptide exchange yield)
Conditions: binding to HLA-A*02:01 ranged by peptide exchange yield, β2m ELISA
From the text: Candidate peptides for T cell based therapies according to the present invention were further tested for their MHC binding capacity (affinity). The individual peptide-MHC complexes were produced by UV-ligand exchange, where a UV-sensitive peptide is cleaved upon UV-irradiation, and exchanged with the peptide of interest as analyzed. Only peptide candidates that can effectively bind and stabilize the peptide-receptive MHC molecules prevent dissociation of the MHC complexes. To determine the yield of the exchange reaction, an ELISA was performed based on the detection of the light chain (β2m) of stabilized MHC complexes. The assay was performed as generally described in Rodenko et al. (Rodenko et al., 2006).
96 well MAXISorp plates (NUNC) were coated over night with 2 ug/ml streptavidin in PBS at room temperature, washed 4× and blocked for 1 h at 37° C. in 2% BSA containing blocking buffer. Refolded HLA-A*02:01/MLA-001 monomers served as standards, covering the range of 15-500 ng/ml. Peptide-MHC monomers of the UV-exchange reaction were diluted 100 fold in blocking buffer. Samples were incubated for 1 h at 37° C., washed four times, incubated with 2 ug/ml HRP conjugated anti-μ2m for 1h at 37° C., washed again and detected with TMB solution that is stopped with […]. Absorption was measured at 450 nm. Candidate peptides that show a high exchange yield (preferably higher than 50%, most preferred higher than 75%) are generally preferred for a generation and production of antibodies or fragments thereof, and/or T cell receptors or fragments thereof, as they show sufficient avidity to the MHC molecules and prevent dissociation of the MHC complexes.
MHC class I binding scores. Binding of HLA-class I restricted peptides to HLA-A*02:01 was ranged by peptide exchange yield: ≥10%=+; ≥20%=++; ≥50=+++; >75%=++++

Substance: 70 (VLGVIWGV; listed as Homo sapiens) [compound 70]
Peptide exchange (MHC class I binding score): “++++” (>75%=++++)

Substance: 109 (ILASVILNV; listed as Homo sapiens) [compound 109]
Peptide exchange (MHC class I binding score): “++++” (>75%=++++)

Substance: 57 (RLSELGITQA; listed as Homo sapiens) [compound 57]
Peptide exchange (MHC class I binding score): “+++” (≥50=+++)

Substance: 43 (HLGVKVFSV; listed as Homo sapiens) [compound 43]
Peptide exchange (MHC class I binding score): “++” (≥20%=++)

Substance: 25 (LINPNIATV; listed as Homo sapiens) [compound 25]
Peptide exchange (MHC class I binding score): “++” (≥20%=++)

Substance: 14 (FIIDNPQDLKV; listed as Homo sapiens) [compound 14]
Peptide exchange (MHC class I binding score): “+++” (≥50=+++)

Substance: 114 (SLFPHNPQFI; listed as Homo sapiens) [compound 114]
Peptide exchange (MHC class I binding score): “+++” (≥50=+++)

Substance: 149 (ILGTEDLIVEV; listed as Homo sapiens) [compound 149]
Peptide exchange (MHC class I binding score): “+++” (≥50=+++)

Substance: 80 (LLPGTEYVVSV; listed as Homo sapiens) [compound 80]
Peptide exchange (MHC class I binding score): “+++” (≥50=+++)

Substance: 125 (ALLGKLDAINV; listed as Homo sapiens) [compound 125]
Peptide exchange (MHC class I binding score): “+++” (≥50=+++)

Substance: 6 (ALTGIPLPLI; listed as Homo sapiens) [compound 6]
Peptide exchange (MHC class I binding score): “+++” (≥50=+++)

Substance: 27 (TLLAHPVTL; listed as Homo sapiens) [compound 27]
Peptide exchange (MHC class I binding score): “+++” (≥50=+++)

Substance: 136 (KLFPGFEIETV; listed as Homo sapiens) [compound 136]
Peptide exchange (MHC class I binding score): “++++” (>75%=++++)

Substance: 52 (LLSDPIPEV; listed as Homo sapiens) [compound 52]
Peptide exchange (MHC class I binding score): “+++” (≥50=+++)

Substance: 7 (ALVDIVRSL; listed as Homo sapiens) [compound 7]
Peptide exchange (MHC class I binding score): “+++” (≥50=+++)

Substance: 116 (SMMDPNHFL; listed as Homo sapiens) [compound 116]
Peptide exchange (MHC class I binding score): “++++” (>75%=++++)

Substance: 85 (FLSDGTIISV; listed as Homo sapiens) [compound 85]
Peptide exchange (MHC class I binding score): “++++” (>75%=++++)

Substance: 138 (NIFPNPEATFV; listed as Homo sapiens) [compound 138]
Peptide exchange (MHC class I binding score): “+++” (≥50=+++)

Substance: 69 (VLFSGSLRL; listed as Homo sapiens) [compound 69]
Peptide exchange (MHC class I binding score): “+++” (≥50=+++)

Substance: 128 (ALYDVRTILL; listed as Homo sapiens) [compound 128]
Peptide exchange (MHC class I binding score): “+++” (≥50=+++)

Substance: 102 (ALYPGTDYTV; listed as Homo sapiens) [compound 102]
Peptide exchange (MHC class I binding score): “+++” (≥50=+++)

Substance: 21 (GLVDGRDLVIV; listed as Homo sapiens) [compound 21]
Peptide exchange (MHC class I binding score): “+++” (≥50=+++)

Substance: 53 (LLWDPSTGKQV; listed as Homo sapiens) [compound 53]
Peptide exchange (MHC class I binding score): “+++” (≥50=+++)

Substance: 89 (KLADIQIEQL; listed as Homo sapiens) [compound 89]
Peptide exchange (MHC class I binding score): “+++” (≥50=+++)

Substance: 132 (FLWAGGRASYGV; listed as Homo sapiens) [compound 132]
Peptide exchange (MHC class I binding score): “+++” (≥50=+++)

Substance: 144 (TAVALLRLL; listed as Homo sapiens) [compound 144]
Peptide exchange (MHC class I binding score): “++” (≥20%=++)

Substance: 103 (AVAAVLTQV; listed as Homo sapiens) [compound 103]
Peptide exchange (MHC class I binding score): “+++” (≥50=+++)

Next, values leading:

Peptide exchange (MHC class I binding score): “++” (≥20%=++)
Substance: 123 (KISTITPQI; listed as Homo sapiens) [compound 123]

Peptide exchange (MHC class I binding score): “++” (≥20%=++)
Substance: 13 (FIDSSNPGL; listed as Homo sapiens) [compound 13]

Peptide exchange (MHC class I binding score): “++++” (>75%=++++)
Substance: 63 (SVTGIIVGV; listed as Homo sapiens) [compound 63]

Peptide exchange (MHC class I binding score): “+++” (≥50=+++)
Substance: 79 (VVYEGQLISI; listed as Homo sapiens) [compound 79]

Peptide exchange (MHC class I binding score): “++” (≥20%=++)
Substance: 30 (YIYKDTIQV; listed as Homo sapiens) [compound 30]

Peptide exchange (MHC class I binding score): “+++” (≥50=+++)
Substance: 88 (IIDDTIFNL; listed as Homo sapiens) [compound 88]

Peptide exchange (MHC class I binding score): “+++” (≥50=+++)
Substance: 101 (ALVEENGIFEL; listed as Homo sapiens) [compound 101]

Peptide exchange (MHC class I binding score): “+++” (≥50=+++)
Substance: 112 (LLSDVRFVL; listed as Homo sapiens) [compound 112]

Peptide exchange (MHC class I binding score): “++” (≥20%=++)
Substance: 24 (KLSENAGIQSL; listed as Homo sapiens) [compound 24]

Peptide exchange (MHC class I binding score): “++” (≥20%=++)
Substance: 56 (NLIGVTAEL; listed as Homo sapiens) [compound 56]

Peptide exchange (MHC class I binding score): “+++” (≥50=+++)
Substance: 42 (ILSDMRSQYEV; listed as Homo sapiens) [compound 42]

Peptide exchange (MHC class I binding score): “+++” (≥50=+++)
Substance: 157 (MLLEIPYMAA; listed as Homo sapiens) [compound 157]

Peptide exchange (MHC class I binding score): “+++” (≥50=+++)
Substance: 113 (LMMSEDRISL; listed as Homo sapiens) [compound 113]

Peptide exchange (MHC class I binding score): “+++” (≥50=+++)
Substance: 124 (ALFEESGLIRI; listed as Homo sapiens) [compound 124]

Peptide exchange (MHC class I binding score): “+++” (≥50=+++)
Substance: 83 (ALSKEIYVI; listed as Homo sapiens) [compound 83]

Peptide exchange (MHC class I binding score): “++” (≥20%=++)
Substance: 147 (YAFPKAVSV; listed as Homo sapiens) [compound 147]

Peptide exchange (MHC class I binding score): “+++” (≥50=+++)
Substance: 142 (SLYGYLRGA; listed as Homo sapiens) [compound 142]

Peptide exchange (MHC class I binding score): “+++” (≥50=+++)
Substance: 156 (LLLPPPPCPA; listed as Homo sapiens) [compound 156]

Peptide exchange (MHC class I binding score): “+++” (≥50=+++)
Substance: 117 (SVDGVIKEV; listed as Homo sapiens) [compound 117]

Peptide exchange (MHC class I binding score): “+++” (≥50=+++)
Substance: 87 (GLLPALVAL; listed as Homo sapiens) [compound 87]

Peptide exchange (MHC class I binding score): “+++” (≥50=+++)
Substance: 118 (TLWYRPPEL; listed as Homo sapiens) [compound 118]

Peptide exchange (MHC class I binding score): “++” (≥20%=++)
Substance: 11 (ALYYNPHLL; listed as Homo sapiens) [compound 11]

Peptide exchange (MHC class I binding score): “+++” (≥50=+++)
Substance: 115 (SLMDPNKFLLL; listed as Homo sapiens) [compound 115]

Peptide exchange (MHC class I binding score): “+++” (≥50=+++)
Substance: 94 (VMMEEFVQL; listed as Homo sapiens) [compound 94]

Peptide exchange (MHC class I binding score): “+++” (≥50=+++)
Substance: 54 (LTQPGPIASA; listed as Homo sapiens) [compound 54]

Peptide exchange (MHC class I binding score): “+++” (≥50=+++)
Substance: 155 (LLLDPDTAVLKL; listed as Homo sapiens) [compound 155]

Peptide exchange (MHC class I binding score): “+++” (≥50=+++)
Substance: 97 (ALDDMISTL; listed as Homo sapiens) [compound 97]

Peptide exchange (MHC class I binding score): “+++” (≥50=+++)
Substance: 48 (LLDENGVLKL; listed as Homo sapiens) [compound 48]

Peptide exchange (MHC class I binding score): “++++” (>75%=++++)
Substance: 29 (YILPFSEVL; listed as Homo sapiens) [compound 29]

Peptide exchange (MHC class I binding score): “++” (≥20%=++)
Substance: 32 (YVDDGLISL; listed as Homo sapiens) [compound 32]

Peptide exchange (MHC class I binding score): “++” (≥20%=++)
Substance: 34 (FLEDDDIAAV; listed as Homo sapiens) [compound 34]

Peptide exchange (MHC class I binding score): “++” (≥20%=++)
Substance: 36 (FLGDLSHLL; listed as Homo sapiens) [compound 36]

Peptide exchange (MHC class I binding score): “++” (≥20%=++)
Substance: 37 (FLNPDEVHAI; listed as Homo sapiens) [compound 37]
